Reference: US7553667B2, “Regulation of gene expression using chromatin remodelling factors” (Her Majesty the Queen in right of Canada as represented by …, priority 2002, dated 2009)

T1: GST-HDA19 (Arabidopsis thaliana, UniProt O22446)
T1 construct: made in house; host or cells: E. coli BL21-CodonPlus (DE3)-RP
T1 sequence (O22446 1-501): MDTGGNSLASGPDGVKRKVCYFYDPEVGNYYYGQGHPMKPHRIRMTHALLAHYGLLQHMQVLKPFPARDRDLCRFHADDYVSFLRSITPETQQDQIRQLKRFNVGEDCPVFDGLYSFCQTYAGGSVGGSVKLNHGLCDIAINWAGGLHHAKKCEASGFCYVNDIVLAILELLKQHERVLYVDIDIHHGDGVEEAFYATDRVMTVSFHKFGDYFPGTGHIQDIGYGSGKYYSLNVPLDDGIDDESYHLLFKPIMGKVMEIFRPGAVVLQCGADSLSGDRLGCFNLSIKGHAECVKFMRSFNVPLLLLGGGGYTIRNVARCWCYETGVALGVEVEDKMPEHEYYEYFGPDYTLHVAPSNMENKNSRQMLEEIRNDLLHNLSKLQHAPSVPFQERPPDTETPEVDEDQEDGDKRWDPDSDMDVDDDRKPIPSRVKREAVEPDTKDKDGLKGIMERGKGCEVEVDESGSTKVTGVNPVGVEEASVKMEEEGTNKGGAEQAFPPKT

T2: GST-Gcn5 (Arabidopsis thaliana, UniProt Q9AR19)
T2 construct: made in house; host or cells: E. coli BL21-CodonPlus (DE3)-RP
T2 sequence (Q9AR19 1-568): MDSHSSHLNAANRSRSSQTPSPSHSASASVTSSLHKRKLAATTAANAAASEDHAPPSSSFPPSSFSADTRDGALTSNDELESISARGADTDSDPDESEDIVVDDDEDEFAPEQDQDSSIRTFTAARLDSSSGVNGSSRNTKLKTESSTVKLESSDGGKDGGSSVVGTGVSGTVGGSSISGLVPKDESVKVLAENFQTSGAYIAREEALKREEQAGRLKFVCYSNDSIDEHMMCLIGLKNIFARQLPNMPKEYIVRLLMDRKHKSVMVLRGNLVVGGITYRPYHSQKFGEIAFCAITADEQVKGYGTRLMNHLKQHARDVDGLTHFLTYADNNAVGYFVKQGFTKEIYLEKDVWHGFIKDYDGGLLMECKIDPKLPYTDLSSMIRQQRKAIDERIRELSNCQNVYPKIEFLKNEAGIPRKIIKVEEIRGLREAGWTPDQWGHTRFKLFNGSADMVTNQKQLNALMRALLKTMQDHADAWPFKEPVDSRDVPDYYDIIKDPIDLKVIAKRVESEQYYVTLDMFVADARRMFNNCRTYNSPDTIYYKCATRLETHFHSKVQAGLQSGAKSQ

T3: Gcn5 (Arabidopsis thaliana, UniProt Q9AR19)
T3 construct: expressed in transfected cells; host or cells: Saccharomyces cerevisiae MaV203
T3 sequence (Q9AR19 1-568): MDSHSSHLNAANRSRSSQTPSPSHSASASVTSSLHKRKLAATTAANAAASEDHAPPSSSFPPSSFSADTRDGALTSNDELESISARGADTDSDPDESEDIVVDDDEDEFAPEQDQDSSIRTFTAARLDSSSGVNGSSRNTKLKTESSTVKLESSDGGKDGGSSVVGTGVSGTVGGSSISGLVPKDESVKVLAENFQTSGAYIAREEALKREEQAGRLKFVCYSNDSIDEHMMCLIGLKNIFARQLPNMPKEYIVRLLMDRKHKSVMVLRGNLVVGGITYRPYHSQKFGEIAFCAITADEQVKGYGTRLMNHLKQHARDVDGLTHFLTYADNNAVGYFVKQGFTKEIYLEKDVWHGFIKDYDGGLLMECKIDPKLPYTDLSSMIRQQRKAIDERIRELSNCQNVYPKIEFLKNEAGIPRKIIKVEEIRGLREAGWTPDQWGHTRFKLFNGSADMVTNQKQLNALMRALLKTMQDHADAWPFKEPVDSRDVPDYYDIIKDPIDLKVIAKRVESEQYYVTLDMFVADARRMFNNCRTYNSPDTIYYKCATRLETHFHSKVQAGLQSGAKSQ


How the values were obtained:
GST-HDA19 [1] = biological target: T1, GST-HDA19; test: GST pulldown affinity assay of BnSCL1 and mutants with GST-HDA19; assay type: binding; conditions: [35S]Met-labeled in vitro translated protein
Method: The open reading frame (ORF) of the HDA19 was PCR amplified, sequence analyzed, inserted in-frame with the GST (glutathione s-transferase) into the vector pGEX-6P-2 (Amersham Pharmacia), and transformed into E. coli BL21-CodonPlus (DE3)-RP competent cells (Stratagene) as previously described (Gao et al., 2003). The recombinant HDA19 protein was expressed and purified under non-denaturing conditions as described by Gao et al, 2002). The GST-HDA19 fusion protein was analyzed by western blotting with rabbit anti-GST-Pi polyclonal antibody (Chemicon) using ECL Western blotting analysis system (Amersham Pharmacia).
The entire coding region of BnSCL1 and four fragments, BnSCL1^1-358, BnSCL1^1-261, BnSCL1^1-217, and BnSCL1^1-145 […], respectively, were amplified by PCR and cloned into the HindIII and XhoI sites of the expression vector pET-28b (Novagen) in-frame with the His-Tag sequence. […]
The TnT-Quick Coupled Transcription/Translation System (Promega) was used to produce the full-length BnSCL1 protein and the truncated mutants ΔBnSCL1^1-358, ΔBnSCL1^1-261, ΔBnSCL1^1-217 and ΔBnSCL1^1-145 labeled with [^35S]methionine as previously described (Gao et al., 2003). In vitro protein interaction was detected with GST pulldown affinity assays as described by Ahmad et al. (1999) and Gao et al., (2003).

[2] = tested on: lacZ reporter gene driven by a promoter containing GAL4 DNA binding sites; test: Transactivation assay of BnSCL1 in yeast; assay type: cell-based, yeast MaV203
Excerpt: MaV203 yeast cells expressing the lacZ reporter gene driven by a promoter containing GAL4 DNA binding sites (GibcoL BRL) were transformed with the […]. These vectors were constructed by ligating the PCR-amplified fragments, ΔBnSCL1^1-358, ΔBnSCL1^1-261, ΔBnSCL1^1-217, ΔBnSCL1^1-145, ΔBnSCL1^146-358 and ΔBnSCL1^218-434 and the entire coding region of BnSCL1, respectively, into the SalI and NotI sites of the vector pDBLeu (GibcoL BRL) in-frame with the GAL4 DB sequence. The oligonucleotide primers for the amplification were the same as those used for the in vivo protein interaction assays. The β-galactosidase activity was measured using CPRG according to the manufacturer's instructions (GibcoL BRL). In addition to the yeast strains A, B and C, the yeast strains D (GibcoL BRL) that contain plasmid pairs expressing fusion protein with strong interaction strength was used as controls.

GST-HDA19 [3] = biological target: T1, GST-HDA19; test: GST pulldown affinity assay of bnKCP1 and mutants with GST-HDA19; assay type: binding; conditions: [35S]Met-labeled in vitro translated protein
Excerpt: (§1) The full coding regions of the Arabidopsis HAT, Gcn5 (Dr. M. Thomashow, Michigan State University, MI), and HDA19 (Accession # AF195547) were PCR amplified, sequence analyzed and inserted in-frame with the GST (glutathione s-transferase) into the SalI and NotI sites of vector pGEX-6P-2 (Amersham Pharmacia). The forward used for the amplification of Gcn5 was:
(§2) Recombinant pGEX-6P-2 plasmids were used to transform E. coli BL21-CodonPlus (DE3)-RP competent cells (Stratagene). Expression and purification under non-denaturing conditions were carried out as described by Gao et al. (Gao, M.-J. et al., 2002). The GST-Gcn5 and GST-HDA19 fusion proteins were analyzed by 7.5% SDS-PAGE (SDS-polyacrylamide gel electrophoresis) and western blotting with rabbit anti-GST-Pi polyclonal antibody (Chemicon) using ECL Western blotting analysis system (Amersham Pharmacia).
(§3) Full-length bnKCP1 and truncated mutant bnKCP1^1-160 and bnKCP1^1-80 proteins labeled with [^35S]methionine were produced using TNT-Quick Coupled Transcription/Translation System (Promega) according to the manufacture's instructions, with some modifications. A total of 1 μl of RNase inhibitor (GibcoL BRL) and 1 μl of protease inhibitors set (Roche) were added to the lysate reaction. After incubation for 90 min at 30° C., RNase A was added to the reaction to a final concentration of 0.2 mg/ml and incubated for 5 min at the same temperature.
In vitro protein interaction was detected with GST pulldown affinity assays as described by Ahmad et al. (1999) with some modifications. Briefly, 6 μg of GST or 4 μg of GST-fusion protein was incubated with 5 μl of [^35S]Met-labeled translation mixture in 200 μl of bead-binding buffer (50 mM K-phosphate, pH 7.6, 450 mM KCl, 10 mM MgCl2, 10% glycerol, 1% Triton X-100, 1% BSA and 1 μl of diluted 1:12 protease inhibitors set) for 1 h at room temperature. After incubation, 20 μl of 50% slurry of glutathione-Sepharose beads containing 10 mg/ml of BSA and 4 μg of EtBr was mixed with the reaction mixture followed by gentle rotation for 1 h at 4° C. After washing six times with 1.2 ml of bead-binding buffer without BSA and EtBr but containing 12 μl of protease inhibitors set (Roche), the bound proteins were eluted with 30 μl of 2×SDS loading buffer, boiled for 2 min and analyzed by 12% SDS-PAGE. After electrophoresis, the gels were dried, treated with Amplify (Amersham Pharmacia) and subjected to fluorography.

GST-Gcn5 = biological target: T2, GST-Gcn5; test: GST pulldown affinity assay of bnKCP1 and mutants with GST-Gcn5; assay type: binding; conditions: [35S]Met-labeled in vitro translated protein
Excerpt: as §1, §2, §3
In vitro protein interaction was detected with GST pulldown affinity assays as described by Ahmad et al. (1999) with some modifications. […] After washing six times with 1.2 ml of bead-binding buffer without BSA and EtBr but containing 12 μl of protease inhibitors set (Roche), the bound proteins were eluted with 30 μl of 2×SDS loading buffer, boiled for 2 min and analyzed by 12% SDS-PAGE. […]

Gcn5 = biological target: T3, Gcn5; test: Yeast two-hybrid interaction of bnKCP1 with Gcn5 (HIS3, URA3, lacZ reporters); assay type: cell-based; conditions: MaV203 yeast, Gcn5 fused to Gal4 DB, data not shown
Excerpt: To reassess the interaction of bnKCP1 with Gcn5 in vivo, the ORF of the Arabidopsis Gcn5 was fused to the yeast Gal4 DNA binding domain in pDBLeu vector and then used to transform yeast MaV203 cells expressing bnKCP1 fused to the yeast Gal4 activation domain in pPC86 vector.

[4] = tested on: lacZ reporter gene driven by promoter containing GAL4 DNA binding sites; test: Transactivation assay of bnKCP1 using yeast one-hybrid system; assay type: cell-based, yeast MaV203
Excerpt: Effector plasmids pDBLeu-bnKCP1^1-160, pDBLeu-bnKCP1^1-80, pDBLeu-bnKCP1^81-215 and pDBLeu-bnKCP1 were constructed by ligating the PCR-amplified fragments ΔbnKCP1^1-160, ΔbnKCP1^1-80, ΔbnKCP1^81-215 and the coding region of bnKCP1 into the SalI/NotI sites of pDBLeu vector (GibcoL BRL) in-frame with the GAL4 DB sequence. The oligonucleotide primers for PCR amplification were as follows: […]
The three reporter genes, lacZ, HIS3 and URA3, which were chromosomally integrated in the genome of MaV203 yeast cells were driven by unrelated promoters containing GAL4 DNA binding sites (GibcoL BRL). For transient assays, the effector constructs or the negative control vector pDBLeu were transferred to the MaV203 yeast cells. The β-galactosidase activity was measured using CPRG (chlorophenol red-β-D-galactopyranoside) according to the manufacturer's instructions (GibcoL BRL). The MaV203 cells containing plasmids pDBLeu-HDA19 and pPC86-bnKCP1 were used as the positive control. In addition, we used three yeast control strains A, B, and C (GibcoL BRL), which were developed to contain plasmid pairs expressing fusion proteins with none, weak and moderately strong protein-protein interaction strength, respectively. Transient Expression of the GUS-bnCKP1 Fusion Protein

Molecule	in vitro binding to GST-HDA19 (GST-HDA19 [1])	transactivation of reporter genes HIS3 and URA3 ([2]; data not shown)	increase of β-galactosidase activity ([2]; relative to vector pDBLeu alone or yeast control strain A)	in vitro binding to GST-HDA19 (GST-HDA19 [3])	in vitro binding to GST-Gcn5 (GST-Gcn5)	induction of reporter genes HIS3, URA3 and lacZ with Gcn5, compared with HDA19 (Gcn5)	activation of reporter genes HIS3 and URA3 ([4]; data not shown)	stimulation of β-galactosidase activity ([4]; relative to GAL4 DB alone or yeast control strain A)
BnSCL1: Brassica napus SCARECROW-like protein 1, SEQ ID NO:81 (protein, left off: large carriers) MKLQASSPQDNQPSNTTNNSTDSNHLSMDEHAMRSMDWDSIMKELEVDDDSAPYQLQPSSFNLPVFPDIDSSDVYPGPNQITGYGFNSLDSVDNGGFDYIEDLIRVVDCIESDELHLAHVVLSQLNQRLQTSAGRPLQRAAFYFKEALGSLLTGTNRNQLFSWSDIVQKIRAIKEFSGISPIPLFSHFTANQAILDSLSSQSSSPFVHVVDFEIGFGGQYASLMREIAEKSANGGFLRVTAVVAEDCAVETRLVKENLTQFAAEMKIRFQIEFVLMKTFEILSFKAIRFVDGERTVVLISPAIFRRVIGIAEFVNNLGRVSPNVVVFVDSEGCTETAGSGSFRREFVSAFEFYTMVLESLDAAAPPGDLVKKIVETFLLRPKISAAVETAANRRSAGQMTWREMLCAAGMRPVQLSQFADFQAECLLEKAQVRGFHVAKRQGELVLCWHGRALVATSAWRF	bound	strongly transactivated	approximately 20 fold	–	–	–	–	–
bnKCP1: B. napus KID-containing protein 1, 215 amino acid protein interacting with HDA19 (SEQ ID NO:71) (protein, left off: large carriers) MAGGGPTFSIELSAYGSDLPTDKASGDIPNEEGSGLSRVGSGIWSGRTVDYSSESSSSIGTPGDSEEEDEESEEDNDEEELGLASLRSLEDSLPSKGLSSHYKGKSKSFGNLGEIGSVKEVPKQENPLNKKRRLQIYNKLARKSFYSWQNPKSMPLLPVHEDNDDEEGDDGDLSDEERGGDVLARRPSFKNRALKSMSCFALSDLQEEEEEEEDE	–	–	–	bound	bound	relatively lower level	modestly activated	about 8 fold
